The record followed here is US20260144882A1 (BIO THERA SOLUTIONS, published 2026).

Substitutions are numbered along the chain they refer to.

T1: human Nectin-4 extracellular antigen hNectin-4-His (human, UniProt Q96NY8 32-349)
T1 construct: C-terminal 8xHis tag included
T1 sequence: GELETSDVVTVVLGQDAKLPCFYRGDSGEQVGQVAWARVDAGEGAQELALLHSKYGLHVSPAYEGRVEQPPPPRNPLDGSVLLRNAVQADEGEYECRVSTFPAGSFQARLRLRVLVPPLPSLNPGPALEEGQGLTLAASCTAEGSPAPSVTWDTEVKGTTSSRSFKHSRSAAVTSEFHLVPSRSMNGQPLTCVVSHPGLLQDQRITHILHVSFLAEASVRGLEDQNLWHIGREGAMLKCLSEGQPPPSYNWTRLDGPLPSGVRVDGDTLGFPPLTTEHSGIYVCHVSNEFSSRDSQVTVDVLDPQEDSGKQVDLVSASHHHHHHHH

B1: 1G8-2H9 scFv (scFv, V domains shown)
VH: EVQLVESGGGLVQPGGSLRLSCAASGFNFGNYAMSWVRQAPGKGLEWVSAIYSYFDEPRYADSVKGRFTISRDNSKNTLYLQMNSLRAEDTAVYYCARQTEDRSYGYDLDYWGQGTLVTVSS
VL: DIQMTQSPSSLSASVGDRVTITCRASQGISSYLAWYQQKPGKAPKLLIYAASSLQSGVPSRFSGSGSGTDFTLTISSLQPEDFATYYCQQHYTTPPTFGQGTKVEIKR
notes: phage clone supernatant
B2: 1G8-2B12 scFv (scFv, V domains shown)
VH: EVQLVESGGGLVQPGGSLRLSCAASGDTFGTSSMSWVRQAPGKGLEWVSRIDTWGWYKFYADSVKGRFTISRDNSKNTLYLQMNSLRAEDTAVYYCARQTEDRSYGYDLDYWGQGTLVTVSS
VL: B1 VL
notes: phage clone supernatant
B3: 10F4-2A9 scFv (scFv, V domains shown)
VH: EVQLVESGGGLVQPGGSLRLSCAASGYTFTDYDMSWVRQAPGKGLEWVSGIKQYKGYTSYADSVKGRFTISRDNSKNTLYLQMNSLRAEDTAVYYCAREYSDVVDYVSVRTPLDYWGQGTLVTVSS
VL: B1 VL
notes: phage clone supernatant
B4: 1G8-2G12 scFv (scFv, V domains shown)
VH: B1 VH with N28T, G30S, Y32N, S53A, Y54S, F55T, E57G, P58R, R59S
VL: B1 VL
notes: phage clone supernatant
B5: 1G8-1F5 scFv (scFv, V domains shown)
VH: EVQLVESGGGLVQPGGSLRLSCAASGDIFDTYMSWVRQAPGKGLEWVSRIYTDGSSDYADSVKGRFTISRDNSKNTLYLQMNSLRAEDTAVYYCARQTEDRSYGYDLDYWGQGTLVTVSS
VL: B1 VL
notes: phage clone supernatant
B6: 10F4-1F8 scFv (scFv, V domains shown)
VH: B3 VH with G50S, K52I, Q53T, Y54D, K55G, Y57G, T58A, S59F
VL: B1 VL
notes: phage clone supernatant
B7: 10F4-1B2 scFv (scFv, V domains shown)
VH: EVQLVESGGGLVQPGGSLRLSCAASGFSFGNYWMSWVRQAPGKGLEWVSGIDGHSSYAFYADSVKGRFTISRDNSKNTLYLQMNSLRAEDTAVYYCAREYSDVVDYVSVRTPLDYWGQGTLVTVSS
VL: B1 VL
notes: phage clone supernatant
B8: 10F4-1 scFv (scFv, V domains shown)
VH: B7 VH with F27D, G30T, D52S, G53Q, H54G, S55G, F59Y
VL: B1 VL
notes: phage clone supernatant
B9: 10F4-1B7 scFv (scFv, V domains shown)
VH: B3 VH with Y27F, T28N, T30S, D31G, Y32F, Q53A, G56S, Y57T, T58A, S59D
VL: B1 VL
notes: phage clone supernatant
B10: 1G8-2H10 scFv (scFv, V domains shown)
VH: B1 VH with F27Y, G30T, Y32S, A50S, S53Y, Y54H, F55S, D56G, E57V
VL: B1 VL
notes: phage clone supernatant
B11: 1G8-2H11 scFv (scFv, V domains shown)
VH: B1 VH with G30D, A50R, S53G, Y54W, F55D, D56W, E57Y, P58A, R59S
VL: B1 VL
notes: phage clone supernatant
B12: 10F4-1D11 scFv (scFv, V domains shown)
VH: B3 VH with Y27F, T28I, T30S, Y32F, Y54S, K55S, G56A, Y57G, T58I, S59N
VL: B1 VL
notes: phage clone supernatant
B13: 10F4-1F9 scFv (scFv, V domains shown)
VH: B3 VH with Y27F, T28S, T30G, D31G, Y32F, Q53T, K55G, T58R
VL: B1 VL
notes: phage clone supernatant
B14: 10F4-1D3 scFv (scFv, V domains shown)
VH: B7 VH with G30Y, N31D, W33D, G50S, D52I, G53Q, H54S, S55G, Y57T
VL: B1 VL
notes: phage clone supernatant
B15: 10F4-1B5 scFv (scFv, V domains shown)
VH: B7 VH with S28N, G30T, N31D, G50S, D52I, H54D, S55D, Y57T, A58N, F59H
VL: B1 VL
notes: phage clone supernatant
B16: 10F4-1E10 scFv (scFv, V domains shown)
VH: B3 VH with Y27D, T30D, D31T, D33A, K52S, Y54W, K55G, G56A, T58A
VL: B1 VL
notes: phage clone supernatant
B17: 10F4-1G5 scFv (scFv, V domains shown)
VH: EVQLVESGGGLVQPGGSLRLSCAASGYTFDSSWMSWVRQAPGKGLEWVSSIDAYGDYNFYADSVKGRFTISRDNSKNTLYLQMNSLRAEDTAVYYCAREYSDVVDYVSVRTPLDYWGQGTLVTVSS
VL: B1 VL
notes: phage clone supernatant
B18: 10F4-1F2 scFv (scFv, V domains shown)
VH: B17 VH with T28N, D30T, S31N, S32Y, W33Y, D52S, G55S, Y57N, N58R, F59N
VL: B1 VL
notes: phage clone supernatant
B19: 10F4-1C3 scFv (scFv, V domains shown)
VH: B3 VH with T28S, T30S, D33W, G50S, Y54T, K55G, Y57V, T58K, S59H
VL: B1 VL
notes: phage clone supernatant
B20: 10F4-1C10 scFv (scFv, V domains shown)
VH: B3 VH with T28N, T30G, D31S, Q53T, K55G, Y57N, S59H
VL: B1 VL
notes: phage clone supernatant
B21: 10F4-1A3 scFv (scFv, V domains shown)
VH: B3 VH with T28S, T30S, D31N, Q53G, Y54W, G56S, S59G
VL: B1 VL
notes: phage clone supernatant
B22: 10F4-1C4 scFv (scFv, V domains shown)
VH: B7 VH with S28N, G30T, N31D, G50S, D52I, H54D, S55D, Y57T, A58N, F59H
VL: B1 VL
notes: phage clone supernatant
B23: 10F4-1A1 scFv (scFv, V domains shown)
VH: B7 VH with G30D, W33D, G50S, D52K, G53P, H54G, S56A, A58K
VL: B1 VL
notes: phage clone supernatant
B24: 10F4-1E12 scFv (scFv, V domains shown)
VH: B17 VH with T28N, D30S, S32Y, W33D, S50G, D52S, A53D, Y54T, N58A, F59N
VL: B1 VL
notes: phage clone supernatant

The assay deals with T1, human Nectin-4 extracellular antigen …. As to the kind of experiment: ELISA, phage scFv supernatant 1:50.
For B1, the OD value is 1.46 OD.

As to B2, the OD value is 1.39 OD.

Molecule B3 gave an OD value of 1.57 OD.

For B4, the OD value amounted to 1.5 OD.

Molecule B5 yielded an OD value of 1.56 OD.

Regarding B6, the OD value stood at 1.49 OD.

Molecule B7 came in with an OD value of 1.64 OD.

Regarding B8, the OD value turned out to be 1.39 OD.

The molecule B9 had an OD value of 1.6 OD.

For the molecule B10, the OD value is 1.53 OD.

As for B11, the OD value is 1.35 OD.

B12: the OD value is 1.46 OD.

B13 had an OD value of 1.48 OD.

B14 gave an OD value of 1.52 OD.

B15 came in with an OD value of 1.53 OD.

For the molecule B16, the OD value is 1.29 OD.

B17 gave an OD value of 1.41 OD.

As for B18, the OD value worked out at 1.4 OD.

B19 displayed an OD value of 1.59 OD.

For B20, the OD value was 1.52 OD.

For the molecule B21, the OD value stood at 1.53 OD.

B22: the OD value came out at 1.46 OD.

B23 registered an OD value of 1.69 OD.

B24: the OD value came out at 1.52 OD.
